In this assay the target is SARS-CoV-2 spike protein (isolate USA-WA1/2020) on pseudotyped virus (SARS-CoV-2 (USA-WA1/2020)) (UniProt P0DTC2). In words: cell-based or functional assay.

Substance DMAb 2130_FcTM (antibody) gave a serum potency (IC50), neutralization of WA1/2020 pseudovirus of 1 to 2 ng/mL.

These data come from patent publication US20240409618A1.
